Assay results taken from PMC3408589 (Chemistry & biology, 2012).

Biological target: the molecule itself
Assay: cross-linking

B1: untagged human ribonucleotide reductase α expressed in COS-1 cells (monocistronic cassette) (enzyme, UniProt P23921 1-792, looked up)
chain: MHVIKRDGRQERVMFDKITSRIQKLCYGLNMDFVDPAQITMKVIQGLYSGVTTVELDTLAAETAATLTTKHPDYAILAARIAVSNLHKETKKVFSDVMEDLYNYINPHNGKHSPMVAKSTLDIVLANKDRLNSAIIYDRDFSYNYFGFKTLERSYLLKINGKVAERPQHMLMRVSVGIHKEDIDAAIETYNLLSERWFTHASPTLFNAGTNRPQLSSCFLLSMKDDSIEGIYDTLKQCALISKSAGGIGVAVSCIRATGSYIAGTNGNSNGLVPMLRVYNNTARYVDQGGNKRPGAFAIYLEPWHLDIFEFLDLKKNTGKEEQRARDLFFALWIPDLFMKRVETNQDWSLMCPNECPGLDEVWGEEFEKLYASYEKQGRVRKVVKAQQLWYAIIESQTETGTPYMLYKDSCNRKSNQQNLGTIKCSNLCTEIVEYTSKDEVAVCNLASLALNMYVTSEHTYDFKKLAEVTKVVVRNLNKIIDINYYPVPEACLSNKRHRPIGIGVQGLADAFILMRYPFESAEAQLLNKQIFETIYYGALEASCDLAKEQGPYETYEGSPVSKGILQYDMWNVTPTDLWDWKVLKEKIAKYGIRNSLLIAPMPTASTAQILGNNESIEPYTSNIYTRRVLSGEFQIVNPHLLKDLTERGLWHEEMKNQIIACNGSIQSIPEIPDDLKQLYKTVWEISQKTVLKMAAERGAFIDQSQSLNIHIAEPNYGKLTSMHFYGWKQGLKTGMYYLRTRPAANPIQFTLNKEKLKDKEKVSKEEEEKERNTAAMVCSLENRDECLMCGS
stoichiometry N: 6
